Experimental data as given in the DeepSol protein solubility set.

assay: soluble on expression in E. coli; label from the status in PepcDB or PDB records

| Sequence | soluble on expression in E. coli |
| --- | --- |
| MNKKILIIDDNKMLGKLLAKKIQMTLDYEVDIAFGFAEAKELMNNDYFLAFVDLCLPDAPNGEVVDYVIEKKIPAIVLTASGDKATKEKFMDKDILDYIFKESETCIDEIISSIVKLNQYAKTKVIVAMSKLPERNEIKKILTQRQFNVLAAAHGEEAMSYLNDNNDVKLIIADVNMPVISGFELLTQVRERFSDDELGVILLGDHNDSFEANSFKNGVNEYLFKPLSKESFNCRLDRCLSYMDDKKFLSTYNVLDPVSGVKNYNALIDGIDDYFNEIATKDEEFAFAFLDIDNLQMINDEYGREVGDEVIKICANEIVNETKGRDLVGRYSAEKICILLKNISQERAIKIFSRIRVNIKKAGVLVNLDEVFFTASIGVVFGKSGDKIDSLADKASKILSQAKDNGKDRVEVCS | soluble |
| MGSDKIHHHHHHMQNVGLVMGKSSITDFSFAVNPSAIPKFGEYVTAINRDGEEVIGIVREISNFNRMILDEGFSFEYLVKNLDFSRRLIEKNDVIVATATVIGVVKDGEVYPNRTPIKPNSEVFLADDDVLSSLFKCDRGVELGRMIARPDISVSLDIKQLVLRHFAILSVTGGGKSNTVAVLVNDIVKKLNGTVVLIDPHGEYVGYTFEDGSERGKNVVPAGIRPERLEPWEFASLVGVDREKAAVQRMHLERIFTTVRHEGKAGREFVERVLDIAEEWINIAAGKGEAEYYDFNGIKRVATLDRQDLNALARIKEYVSSFMRRYEDLLSQNDMLANIKPSYLNVVNLSGFDEGQMRVVVAYLLRNLLVGRINYVRGKKGWEKICPAIVKPLLVIFEEGHIFAPKGVNNDVVSWMGRIAREGRKFGIGLGIVSQRPKRLNDDVLSQCNTKIILRITEPNDQRYVQHASEQISEDLLKDIASLGVGEAVVVGPAVKLPVAVKIRKFAGNYGGRDIDVVEEWLGREEEQKKQVTLEDLAV | not soluble |
| MAHHHHHHMGCSASKDTTNSKDGAASKGGKDGKTTADRKVAWERIRCAIPRDKDAESKSRRIELFKRFDTNGTGKLSFREVLDGCYSILKLDEFTTHLPGIVQRAFDKAKDLGNKVKGVGEEDLVEFLEFRLMLCYIYDIFELTVMFDTMDKDGSLLIELQEFKEALPKLKEWGVDITDATTVFNEIDTNGSGVVTFDEFSCWAVTKKLQVCGDPDGEGAAKTTADRKVAWERIRCAIPRDKDAESKSRRIELFKQFDTNGTGKLGFREVLDGCYSVLKLDEFTTHLPDIVQRAFDKAKDLGNRVKGVGEEDLVEFLEFRLMLCYIYDIFELTVMFDTMDKDGSLLLELQEFKEALPKLKEWGVDITDATTVFNEIDTNGSGVVTFDEFSCWAVTKKLQVCGDPDGEENGANEGN | soluble |
| PDVKFLEGRYCSVEHIDARKHLNDIIDFYWKNAVPSDWTYMFDQPFETAEAVQERLQDYEKSENPYFFAIRDKETDKVLGTFSLMRIDPKNRVLEMGRVIYAPALQKTSAATEAQYLVMNYVFENLGYRRYEWKCDHLNQSSGNAAKRLGFTYEGTFRKHVVYKGRTRDTDWFSVIDQDWPKLKKRFENWLSPKNF | not soluble |
| MMQPLYLVGPRGCGKTTIGMALAQATGFRFADTDRWLQSHVQMSVADIVEKEGWGGFRARETAALEAVSAPSTVVATGGGIILTEYNRRYMHRVGVVIYLCAPVSTLVNRLEAEPEADLRPTLTGKPLSEEVREVLEQRDALYRETAHYIIDATKAPAQVVSEIIAALPPSTQRLQGDVYT | not soluble |
| MQSRQRLLISVLAAGESRRFQGAKLAQSLATSTSEDRGQSLLQRHIACLANFIVSPNDRRESLGALDAELLVVIGAHQTLLRPQLEALGAVKLTLLDNPHWRTGLASSLGVAAAYAKVHQFDGMLLTLADQVALTLNDYRQLIETWQNCRKSVAAHYSSQIGELDELGAPAIFNASILDSLTDLTGDRGAKSILKQLAYVGELEAVALPNAAIDIDTKADLALWLALKELEHHHHHH | not soluble |
| MGSDKIHHHHHHMQIKNTQLGHIAWCETTAQHIAPQDFAVDGWREKNAVVGQSKGRYTTWFVKTDNSDSPQTWVLRHYWRGGMMEKFSRDAYFYTGLQRTRAVAELAILEVLYQEGFAVPRPIAANVERFGLWYRADIIIEHVAGANDLVAYLSHNPMTESQWYLLGETIAKFHQRGVYHADLNAKNILLAHGEFYLIDFDRGELRTPQPTWQQANLDRLLRSFNKEHAKLTTLQFSQQHWLQLLAGYQSINPI | not soluble |
| MEVDKKDEREAESSEQVVNPWEVSAKDGGKIDYDKLIDKFGCQRLDESLIDRVQRLTSRQPHVFLRRSVFFAHRDFNEILDAYERGDKFYLYTGRGPSSEALHLGHLIPFMFTKYLQEAFKVPLVIQLTDDEKSIWKNLSVEESQRLARENAKDIIACGFDVTKTFIFSDFDYVGGAFYKNMVKVGKCVTLNKAMGIFGFSGEDPIAKLSFPPVQAVPSFPSSFPHLFPGKDNLRCLIPCAIDQDPYFRMTRDVAPRLGYSKPALIESTFFPALQGENGKMSASDPNSAIYVTDSAKDIKNKINRYAFSGGQDSIEKHRELGANLEVDIPVKYLSFFLEDDSELEHIKKEYGEGRMLTGEVKKRLTEVLTEIVERHRRARAAVTDEMVDAFMAVRPLPSMFE | soluble |
| MGSDKIHHHHHHMKDVSIVLSGEAGQGIQTVENVLTRVLKDSGFHVFATKEYMSRVRGGNNTTEIRVSSRRVRSFVDRIDVLIPLGKGATERLKNRITEKTLVIGEEEFIKESPGEKIVIPFLNIAKQIGKSIYANSVAIGFLSGLLGADESALKDQITRQFSSKGEDIVNDNIRAALEGYKKGQELSQKIEFDVEKDPSIKNEVLLNGAEAVGLGAIAGGCNFVSSYPMSPSTSVLVFLAQHKNDFGIVVEQAEDEIAAMNMIIGAWYAGARGLVTTSGGGFALMEEALSLAGMIESPAVIHLAQRPGPATGLPTRTEQGDLNLALYAGHGDFPRVIYAPGNVEEAFYLTQKAFNVADKYQVPVFVLTDQYLVDSYYNLPGFDLNELKVEKHFIKTTRDYIRYAITEDGISPRGIPGYGEGLVRVDSDEHDEFGHITEDFNTRVRMVNKRLRKGETLKKEIVKPKLIGDENYRVLLVAWGSTLEPIKEAIEGLDGVALLHFSQVWPIDESVATYFEKAEKVVAVEGNATGQFANLIRQVTGFHIKDRILKYNGLQFSVEELKEKIAEVL | not soluble |
| MAHHHHHHMKFIPLDSFSALNSLLQGVEAQGCCITMRLEAYTCRHTKEERQIANSIACYQNNVQLTPPISPLPTIGAYAGCTQEALPPLVLGGSAENVAASYSLVSPNEIDDRLVYFVAALNTVYESDGYDFSVLRENDFVRYTEPQFRTEVSSTLQSLPEQCRPAVQRFWPTIEEVVENAESGCEYYEFRCPSCNPLADTTVYARHYFVYNRRKKVLVLLVEYGESNPYRGDDGLPHAGDPTSAWDAESPTYASTPDLGEEGEAYDGGKNRQFYGYY | soluble |
| MSQKRQTKFQNGKSKTSENSSAKREKGMVVNSKEISDAVGQSKFVLENLRHYTVHPNLAQYYKPLKATALQKFLAQNRKNTSFMLKVTQYDQDKTLLIMTNNPPPCSITQQDKESASKYFSKELLLKVMESHHQHKPTENLWLPRMPQKKKLRSKLKPIFPLILSDDPTSKREQWFRFSTDNDFKSEGKYSKVYALRTQKKMYPQLTFAPVHERDMRKDASKKSASERPISKVIREPLTLASLLEDMPTRTAPGESAFRNGRAPQWIIKKATVIG | soluble |
| MGSDKIHHHHHHMALLEVHNLNKRFTDHISLFHKQRFYAVKNISFNLNEGETIAIIGENGAGKSTLAKMIAGITKPTSGDMFFRYKKLTYGDYQFRTKHIRMMFQDPNHTFNPNHNIGQILDAPLRLATDMNEQERNECIFNTLKLVGMYPEYALIPIKETSTSQKQRIALARALILSPEIIIADDTLSTLDFSVKTQLTNLMLNLQEKLGIAFIYVGQHLGIIKHIADKLIIMHQGEAIEYGDTKEVLLNPQNPITARLIESHFGKMLTEDAWAK | not soluble |
| MSLSDYKVGEELSDKEGVEYFKELSKRPVQEWPNKNLSINDVPKGKQGDLIRYGIELLSKTESTLGPYSKLKKTSNEVNCISCHMDNDGNGLPGTKKYVIPFLNILNNYPRLDIETMKIISVEDRIRGMGGTDSHRFPNDSKEMKAILAYFKWLKEAYGIKDGVKLEGDFFAKMNFPNRPADPVRGKKLFEENCVACHGERGLGVKNDNYEQGSGHLYPSLLIYPDGGHMAMIPFLARFLKSAMPFGASADNPILSDEDALDIAAYVNTGFVRMPITTTENRAGLDTAYSKSPSLKPEYFASPQQNLDPKEYIKVKYGPWKNPNHFPGEGHHHHHH | soluble |
| MSLDDYGIPQVAEINEQISVVWKDYGISPAPEAQDFEWVRRVYLDIIGRVPSVAELEEFQRDRGKDRKKNLVEKLLNDSAFTEEYARNWTTIWTNVLIGRNGGLDNNSQVSREGMQKYLRDSFARNKPYDQLVREVITSEGANAPGMPNFNGAVNFYMDKLAEDGVQATAKTAQIFLGVQVQCTQCHNHPFNSWKQDKFWELNAFFRQTRAQRDRGMEANEGHHHHHH | not soluble |
| MRNRTLADLDRVVALGGGHGLGRVLSSLSSLGSRLTGIVTTTDNGGSTGRIRRSEGGIAWGDMRNCLNQLITEPSVASAMFEYRFGGNGELSGHNLGNLMLKALDHLSVRPLEAINLIRNLLKVDTHLIPMSEHPVDLMAIDDQGHEVYGEVNIDQLTTPIQELLLTPNVPATREAVHAINEADLIIIGPGSFYTSLMPILLLKEIAQALRRTPAPMVYIGNLGRELSLPAANLKLESKLAIMEQYVGKKVIDAVIVGPKVDVSAVKERIVIQEVLEASDIPYRHDRQLLHNALEKALQALGLEHHHHHH | not soluble |
| MSGEKIDITPKKDGGVLKLIKKEGQGVVKPTTGTTVKVHYVGTLENGTKFDSSRDRGDQFSFNLGRGNVIKGWDLGVATMTKGEVAEFTIRSDYGYGDAGSPPKIPGGATLIFEVELFEWSAEDISPDRDGTILRTIIVEGSKNSFPNDTSKVLAHCVGTYQGTEFYNREVNFHIGEGSEEGLPEGVERALRRFQLGEKSKIEIRGHKYTYGNSPPAGSNIPVNATLEFTIFLKEFEKVPATWEMTAEEKLDAAKQAKDRGTMYLQKGNLKLAYNKYKRAEEVLEYEKSTDPEKMAERETILNGAYLNLSLVCSKQNEQLECIKWCDKVLETKPGNVKALYRKATALLTMNEVRDAMKLFEKIVEVEPENKAAAQQIIVCRNTIREQNERDKKRFKNLFAKISTEEDKPTNTVEDEDEIVASTSGSSTSNA | soluble |
| MGHHHHHHSHMIQYIPQRPPIVMISTLVSAEKNVTETELEIPAHGLFVKDGVLHEPGLIENVAQTAAAGVGYACTLTSQPVPVGFIGAVKNLEIDYLPKVGDVLETRVEVLEEIFDMTLIKGESFVKGKRVLTCEMKIVLKK | not soluble |
| GMEVNQPDIVAQVQAAFVEYERALVENDIEAMNALFWHTPETVRYGIAEVQHGGEAIRAWRERCEPVPKSRKLHRTVVTTFGTDFATVSTEFTSDATPLLGRQMQTWARLSPADGWKIVAAHVSLIAMP | soluble |
| FLILGTLFSSSLYADIDNAPLHALAKHQGFFFFFSSSCPHCQRFAPTLKRLSQHYGFSVVAISVDGGFLPSFPDAVMNEGQTKVFQVSVYPSLFLINPKSQVASLVTEGTIDEGELTNRLLKI | not soluble |
